From US20180326084A1 (Genmab, published 2018)

T1: human AXL with a cynomolgus monkey extracellular domain (ECD) (cynomolgus monkey (Macaca …, UniProt P30530 26-894))
T1 construct: Chimera on transfected HEK293T cells; also called cynomolgus AXL; cynomolgus AXL-ECD
T1 chain: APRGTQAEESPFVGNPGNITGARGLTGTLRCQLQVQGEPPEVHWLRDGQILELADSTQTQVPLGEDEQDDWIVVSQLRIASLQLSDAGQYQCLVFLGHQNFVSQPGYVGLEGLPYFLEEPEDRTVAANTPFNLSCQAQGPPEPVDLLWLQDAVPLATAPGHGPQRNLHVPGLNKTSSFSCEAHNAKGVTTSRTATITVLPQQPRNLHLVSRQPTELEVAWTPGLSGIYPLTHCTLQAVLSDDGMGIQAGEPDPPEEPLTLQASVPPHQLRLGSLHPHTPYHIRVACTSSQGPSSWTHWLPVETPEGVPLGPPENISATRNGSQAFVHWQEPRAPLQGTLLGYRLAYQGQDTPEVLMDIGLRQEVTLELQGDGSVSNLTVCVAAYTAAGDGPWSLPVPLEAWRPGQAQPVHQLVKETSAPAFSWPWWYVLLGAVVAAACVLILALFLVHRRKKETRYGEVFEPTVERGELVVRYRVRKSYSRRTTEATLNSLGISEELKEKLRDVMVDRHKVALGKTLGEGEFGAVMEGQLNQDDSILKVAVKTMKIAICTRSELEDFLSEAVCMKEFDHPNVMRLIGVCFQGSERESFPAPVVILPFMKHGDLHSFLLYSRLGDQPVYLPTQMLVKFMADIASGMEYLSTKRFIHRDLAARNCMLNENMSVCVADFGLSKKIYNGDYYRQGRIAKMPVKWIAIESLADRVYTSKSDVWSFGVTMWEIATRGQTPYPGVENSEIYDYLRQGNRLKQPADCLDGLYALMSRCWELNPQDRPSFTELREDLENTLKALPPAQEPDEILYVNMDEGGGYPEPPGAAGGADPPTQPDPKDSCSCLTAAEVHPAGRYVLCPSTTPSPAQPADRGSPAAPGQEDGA

T2: Homo sapiens AXL-Mus musculus Ig1 domain (p33-AXL-mIg1) (human-mouse chimera, UniProt P30530 8-894)
T2 construct: Expressed in HEK293F cells; also called hsAXL-mmIg1; hsAXL-mmIgl
T2 chain: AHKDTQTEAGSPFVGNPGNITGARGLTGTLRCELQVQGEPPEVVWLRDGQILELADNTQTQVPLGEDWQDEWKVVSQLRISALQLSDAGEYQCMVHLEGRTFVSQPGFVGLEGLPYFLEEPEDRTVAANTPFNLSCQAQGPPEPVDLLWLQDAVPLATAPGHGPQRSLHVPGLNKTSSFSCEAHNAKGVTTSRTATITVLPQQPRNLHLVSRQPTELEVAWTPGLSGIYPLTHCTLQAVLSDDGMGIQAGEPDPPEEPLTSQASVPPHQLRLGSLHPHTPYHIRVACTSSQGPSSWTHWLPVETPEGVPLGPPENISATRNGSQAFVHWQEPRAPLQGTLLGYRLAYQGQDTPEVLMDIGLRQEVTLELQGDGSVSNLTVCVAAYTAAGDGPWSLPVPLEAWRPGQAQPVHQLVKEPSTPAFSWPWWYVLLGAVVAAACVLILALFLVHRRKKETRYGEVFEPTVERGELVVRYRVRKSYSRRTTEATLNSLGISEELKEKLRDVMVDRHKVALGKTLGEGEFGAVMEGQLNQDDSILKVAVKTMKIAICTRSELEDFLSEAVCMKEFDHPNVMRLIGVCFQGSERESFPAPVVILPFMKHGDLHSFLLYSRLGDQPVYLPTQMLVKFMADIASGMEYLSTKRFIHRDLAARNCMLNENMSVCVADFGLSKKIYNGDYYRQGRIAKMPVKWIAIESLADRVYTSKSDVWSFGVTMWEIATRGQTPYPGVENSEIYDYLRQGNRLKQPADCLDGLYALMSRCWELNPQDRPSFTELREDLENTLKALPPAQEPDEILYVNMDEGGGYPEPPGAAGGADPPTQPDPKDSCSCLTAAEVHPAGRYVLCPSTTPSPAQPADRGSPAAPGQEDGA


How the values were obtained:
human AXL (full length) [1] = target: T3, human AXL (full length) (human, UniProt P30530 26-894); assay: flow cytometry, A431 cells, no Gas6
T3 construct: also called TH1021-AXL; TH1021-hAXL

human AXL (full length) [2] = target: T3, human AXL (full length); assay: flow cytometry, HEK293T cells with full-length human AXL
AXLECDHis = target: T4, AXLECDHis (human, UniProt P30530 26-447); assay: BLI (Octet), IgG on anti-human Fc sensor, AXLECDHis analyte
T4 construct: theoretical mass 46 kDa used; also called extracellular domain (ECD) of human AXL (aa 1-447) with a C-terminal His tag; soluble recombinant AXL extracellular domain

[3] = target: T1, human AXL with a cynomolgus monkey …; assay: flow cytometry, HEK293T cells with human AXL carrying cynomolgus ECD
[4] = target: T2, Homo sapiens AXL-Mus musculus Ig1 …; assay: flow cytometry, 1 µg/mL antibody, transfected HEK293F cells
human AXL (full length) [5] = target: T3, human AXL (full length); assay: flow cytometry, A431 cells pre-incubated with 10 µg/mL Gas6 (competitor)

Row | Binder | EC50 (human AXL (full length) [1]) | EC50 (human AXL (full length) [2]) | Kd (AXLECDHis) | koff (AXLECDHis) | kon (AXLECDHis) | EC50 [3] | binding result [4] | EC50 (human AXL (full length) [5]) | maximal binding in presence of Gas6 (% of binding in absence of Gas6) (human AXL (full length) [5])
1 | IgG1-AXL-148 (antibody, V domains shown) VH: EVQLLESGGGLVQPGGSLRLSCAASGFTFSSYAMTWVRQAPGKGLEWVSAISISGGSTFYADSVKGRFTISRDNSKNTLYLQMNSLRAEDTAVYYCRGYSGYVYDAFDFWGQGTMVTVSS VL: DIQMTQSPSSLSASVGDRVTITCRASQGISNWLAWYQQKPEKAPKSLIYAASSLQSGVPSRFSGSGSGTDFTLTISSLQPEDFATYYCQQYNSYPLTFGGGTKVEIK | 0.11 mg/L | 0.094 mg/L | 0.02 µM | 0.0044 s⁻¹ | 230000 M⁻¹ s⁻¹ | 0.152 mg/L | binds | 0.2 mg/L | 93%
2 | IgG1-AXL-726 (antibody, V domains shown) VH: QVQLQQWGAGLLKPSETLSLTCAIDGGSFSGYYWSWIRQPPGKGLEWIGEISHSGRTNYNPSLKSRVTISIDTSKNQFSLKLSSVAAADTAVYYCARFITMIRGAIITHFDYWGQGALVTVSS VL: DIQMTQSPSSLSASVGDRVTITCRASQGISSWLAWYQQKPEKAPKSLIYAASSLQSGVPSRFSGSGSGTDFTLTISSLQPEDFATYYCQQYHSYPYTFGQGTKLEIK | 0.32 mg/L | 0.288 mg/L | 0.0006 µM | 0.00013 s⁻¹ | 240000 M⁻¹ s⁻¹ | 0.349 mg/L | binds | 0.55 mg/L | 97%
3 | IgG1-AXL-183 (antibody, V domains shown) VH: QVQLQQWGAGLLKPSETLSLTCAVYGGSFSGYYWSWIRQPPGKGLEWIGEINQSGSTNYNPSLKSRVTISVDTSKNQFSLKLSSVTAADTSVYYCASGNWDHFFDYWGQGTLVTVSS VL: DIQMTQSPSSVSASVGDRVTITCRASQGISSWLAWYQHKPGKAPKLLIYATSSLQSGVTSRFSGSGSGTDFTLTISSLQPEDFATYYCQQAKSFPWTFGQGTKVEIK | 0.69 mg/L | 0.526 mg/L | 0.0102 µM | 0.00042 s⁻¹ | 41000 M⁻¹ s⁻¹ | 0.309 mg/L | binds | 1.19 mg/L | 90%
4 | IgG1-AXL-733 (antibody, V domains shown) VH: QVQLVESGGGVVQPGRSLRLSCAASGFSFSTYAMHWVRQAPGKGLEWVAVISYDGDNKYSADSVKGRFTISRDNSKNTLYLQMNSLRAEDTAVYYCARGRKLGIDAFDIWGQGTMVTVSS VL: AIQLTQSPSSLSASVGDRVTITCRASQGISSALAWYQQKPGKAPKLLIYDASSLESGVPSRFSGSGSGTDFTLTISGLQPEDFATYYCQQFNSYPFTFGPGTKVDIK | 0.49 mg/L | 0.176 mg/L | 0.063 µM | 0.0097 s⁻¹ | 160000 M⁻¹ s⁻¹ | 0.254 mg/L | binds | 0.62 mg/L | 93%
